Among the data in PMC7142922 are binding values, retold here.

This data set has as its target T1, TyrR (Escherichia coli DH5alpha) (UniProt P07604).
T1 sequence: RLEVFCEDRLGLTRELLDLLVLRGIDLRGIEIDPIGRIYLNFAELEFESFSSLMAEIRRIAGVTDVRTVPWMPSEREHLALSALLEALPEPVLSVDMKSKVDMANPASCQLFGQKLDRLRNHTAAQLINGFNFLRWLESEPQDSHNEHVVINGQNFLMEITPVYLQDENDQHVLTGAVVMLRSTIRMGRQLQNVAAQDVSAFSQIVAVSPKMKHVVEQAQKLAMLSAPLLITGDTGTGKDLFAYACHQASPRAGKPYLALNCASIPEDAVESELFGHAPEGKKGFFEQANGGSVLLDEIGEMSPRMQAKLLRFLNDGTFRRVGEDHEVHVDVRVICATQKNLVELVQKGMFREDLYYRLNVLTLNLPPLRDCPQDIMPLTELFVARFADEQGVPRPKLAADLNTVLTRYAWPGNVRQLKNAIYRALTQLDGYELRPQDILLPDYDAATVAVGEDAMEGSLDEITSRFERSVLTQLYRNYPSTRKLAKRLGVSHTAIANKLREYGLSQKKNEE
The data set is described as follows: EMSA. Conditions: TyrR EMSA: 50 mM Tris-HCl pH 7.8, 50 mM NaCl, 3 mM Mg acetate, 0.1 mM EDTA, 0.1 mM DTT, 25 ug/mL BSA, 0.1 mM Phe, 0.1 mM ATP, ~15 nM DNA, 37 C 30 min, 2% ….

Take “CTGCAGCACTATCACTCTTTTGTCTTGGTAAGAATAATGGTATGTGACTGCGAATGCACCTGCTTTGTGCAGGGGTGATGACGAGTTGCGTAAAAAGAAAGCACTTGTAAACCCTTTTAGCATTACTCACTTTATTTTGCATAGCATGTGATGTGCGGAGAAATCTTAGCAGTGAGCAGACCAATAAATAGAATATTCAGAACGGTGTTATTTTATTGACATCGTCAGCGGGGGAGGCGTTTAATTTATATTCGGATGTCGTAAAGCTTAA (double strand) [deltaTB fragment without TyrR boxes (274 bp)]”: the binding entry is recorded as “no binding”.
